# Where “and” joins values, the source holds several entries; their conditions need not be identical. Identical values can stand only once. Like-named read-outs stand apart in the source and are kept apart here. No end group written: not given here.
# Experiments:
# BRD3 ET [1] = biological target: T1, BRD3 ET (Homo sapiens, UniProt Q15059); assay: Isothermal titration calorimetry, peptide binding to BRD3 ET; set-up: species or system murine; conditions: ITC, 20 mM Tris, 150 mM NaCl, 1 mM TCEP
# [2] = biological target: LANA peptide (Human herpesvirus 8) (UniProt Q9QR71); conditions: cited from earlier work
# LANA peptide (Human herpesvirus 8), sequence (Q9QR71 1-23): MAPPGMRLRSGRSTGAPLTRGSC
# [3] = biological target: JMJD6 peptide (Homo sapiens) (UniProt Q6NYC1); conditions: cited from earlier work
# BRD3-ET = conditions: cited from earlier work
# BRD4 ET (Homo sapiens) [4] = biological target: BRD4 ET (Homo sapiens) (UniProt O60885); conditions: cited from earlier work
# BRD4 ET (Homo sapiens) [5] = biological target: BRD4 ET (Homo sapiens) (UniProt O60885); conditions: cited from earlier work; remark: listed apart in the source
# BRD3 ET [6] = biological target: T1, BRD3 ET; conditions: cited from earlier work
# BRD4-ET = conditions: cited from earlier work
# BRD3 ET [7] = biological target: T1, BRD3 ET; conditions: cited from earlier work; remark: listed apart in the source
# [8] = biological target: NSD3 short peptide (Homo sapiens) (UniProt Q9BZ95); conditions: cited from earlier work
# NSD3 short peptide (Homo sapiens), sequence (Q9BZ95 whole entry): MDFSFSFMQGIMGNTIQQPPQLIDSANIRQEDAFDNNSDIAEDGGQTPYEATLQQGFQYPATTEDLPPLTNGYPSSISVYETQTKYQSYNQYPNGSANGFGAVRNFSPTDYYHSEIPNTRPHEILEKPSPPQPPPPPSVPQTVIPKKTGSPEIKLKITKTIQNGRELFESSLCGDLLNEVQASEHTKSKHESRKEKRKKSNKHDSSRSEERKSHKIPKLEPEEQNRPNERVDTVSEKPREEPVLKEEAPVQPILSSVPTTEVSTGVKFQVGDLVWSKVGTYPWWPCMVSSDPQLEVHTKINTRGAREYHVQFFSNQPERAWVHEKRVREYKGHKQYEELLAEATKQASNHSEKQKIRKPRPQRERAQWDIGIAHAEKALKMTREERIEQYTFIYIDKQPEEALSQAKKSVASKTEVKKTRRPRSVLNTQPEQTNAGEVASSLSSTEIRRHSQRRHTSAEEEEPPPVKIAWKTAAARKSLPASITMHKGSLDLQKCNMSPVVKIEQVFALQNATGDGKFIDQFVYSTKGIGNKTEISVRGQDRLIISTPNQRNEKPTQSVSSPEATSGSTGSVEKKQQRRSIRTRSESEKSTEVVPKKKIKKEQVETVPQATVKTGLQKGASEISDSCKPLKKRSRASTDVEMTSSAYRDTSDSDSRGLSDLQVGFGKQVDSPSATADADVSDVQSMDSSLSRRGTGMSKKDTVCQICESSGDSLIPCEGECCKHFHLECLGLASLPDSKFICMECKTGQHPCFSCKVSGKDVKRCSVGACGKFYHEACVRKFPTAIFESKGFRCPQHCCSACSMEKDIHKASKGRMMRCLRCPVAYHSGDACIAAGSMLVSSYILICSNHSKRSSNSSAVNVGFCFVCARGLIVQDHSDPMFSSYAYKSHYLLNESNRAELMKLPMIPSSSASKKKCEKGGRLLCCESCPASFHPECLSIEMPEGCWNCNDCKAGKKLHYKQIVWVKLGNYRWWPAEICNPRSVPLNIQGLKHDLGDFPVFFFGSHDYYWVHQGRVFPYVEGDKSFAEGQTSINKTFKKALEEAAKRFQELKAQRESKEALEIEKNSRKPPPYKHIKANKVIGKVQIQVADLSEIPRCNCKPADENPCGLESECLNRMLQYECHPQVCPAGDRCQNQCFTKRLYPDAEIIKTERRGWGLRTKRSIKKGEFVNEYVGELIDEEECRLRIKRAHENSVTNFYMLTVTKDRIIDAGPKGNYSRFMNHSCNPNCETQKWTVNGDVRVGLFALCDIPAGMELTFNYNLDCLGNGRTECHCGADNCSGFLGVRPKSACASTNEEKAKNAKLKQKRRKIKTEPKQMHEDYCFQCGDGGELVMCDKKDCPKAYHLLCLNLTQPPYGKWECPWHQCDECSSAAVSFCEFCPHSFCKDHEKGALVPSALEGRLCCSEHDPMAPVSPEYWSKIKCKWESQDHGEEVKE
# [9] = biological target: BRG1 peptide (Homo sapiens) (UniProt P51532); conditions: cited from earlier work
# [10] = biological target: CHD4 peptide (Homo sapiens) (UniProt Q14839); conditions: cited from earlier work
# CHD4 peptide (Homo sapiens), sequence (Q14839 whole entry): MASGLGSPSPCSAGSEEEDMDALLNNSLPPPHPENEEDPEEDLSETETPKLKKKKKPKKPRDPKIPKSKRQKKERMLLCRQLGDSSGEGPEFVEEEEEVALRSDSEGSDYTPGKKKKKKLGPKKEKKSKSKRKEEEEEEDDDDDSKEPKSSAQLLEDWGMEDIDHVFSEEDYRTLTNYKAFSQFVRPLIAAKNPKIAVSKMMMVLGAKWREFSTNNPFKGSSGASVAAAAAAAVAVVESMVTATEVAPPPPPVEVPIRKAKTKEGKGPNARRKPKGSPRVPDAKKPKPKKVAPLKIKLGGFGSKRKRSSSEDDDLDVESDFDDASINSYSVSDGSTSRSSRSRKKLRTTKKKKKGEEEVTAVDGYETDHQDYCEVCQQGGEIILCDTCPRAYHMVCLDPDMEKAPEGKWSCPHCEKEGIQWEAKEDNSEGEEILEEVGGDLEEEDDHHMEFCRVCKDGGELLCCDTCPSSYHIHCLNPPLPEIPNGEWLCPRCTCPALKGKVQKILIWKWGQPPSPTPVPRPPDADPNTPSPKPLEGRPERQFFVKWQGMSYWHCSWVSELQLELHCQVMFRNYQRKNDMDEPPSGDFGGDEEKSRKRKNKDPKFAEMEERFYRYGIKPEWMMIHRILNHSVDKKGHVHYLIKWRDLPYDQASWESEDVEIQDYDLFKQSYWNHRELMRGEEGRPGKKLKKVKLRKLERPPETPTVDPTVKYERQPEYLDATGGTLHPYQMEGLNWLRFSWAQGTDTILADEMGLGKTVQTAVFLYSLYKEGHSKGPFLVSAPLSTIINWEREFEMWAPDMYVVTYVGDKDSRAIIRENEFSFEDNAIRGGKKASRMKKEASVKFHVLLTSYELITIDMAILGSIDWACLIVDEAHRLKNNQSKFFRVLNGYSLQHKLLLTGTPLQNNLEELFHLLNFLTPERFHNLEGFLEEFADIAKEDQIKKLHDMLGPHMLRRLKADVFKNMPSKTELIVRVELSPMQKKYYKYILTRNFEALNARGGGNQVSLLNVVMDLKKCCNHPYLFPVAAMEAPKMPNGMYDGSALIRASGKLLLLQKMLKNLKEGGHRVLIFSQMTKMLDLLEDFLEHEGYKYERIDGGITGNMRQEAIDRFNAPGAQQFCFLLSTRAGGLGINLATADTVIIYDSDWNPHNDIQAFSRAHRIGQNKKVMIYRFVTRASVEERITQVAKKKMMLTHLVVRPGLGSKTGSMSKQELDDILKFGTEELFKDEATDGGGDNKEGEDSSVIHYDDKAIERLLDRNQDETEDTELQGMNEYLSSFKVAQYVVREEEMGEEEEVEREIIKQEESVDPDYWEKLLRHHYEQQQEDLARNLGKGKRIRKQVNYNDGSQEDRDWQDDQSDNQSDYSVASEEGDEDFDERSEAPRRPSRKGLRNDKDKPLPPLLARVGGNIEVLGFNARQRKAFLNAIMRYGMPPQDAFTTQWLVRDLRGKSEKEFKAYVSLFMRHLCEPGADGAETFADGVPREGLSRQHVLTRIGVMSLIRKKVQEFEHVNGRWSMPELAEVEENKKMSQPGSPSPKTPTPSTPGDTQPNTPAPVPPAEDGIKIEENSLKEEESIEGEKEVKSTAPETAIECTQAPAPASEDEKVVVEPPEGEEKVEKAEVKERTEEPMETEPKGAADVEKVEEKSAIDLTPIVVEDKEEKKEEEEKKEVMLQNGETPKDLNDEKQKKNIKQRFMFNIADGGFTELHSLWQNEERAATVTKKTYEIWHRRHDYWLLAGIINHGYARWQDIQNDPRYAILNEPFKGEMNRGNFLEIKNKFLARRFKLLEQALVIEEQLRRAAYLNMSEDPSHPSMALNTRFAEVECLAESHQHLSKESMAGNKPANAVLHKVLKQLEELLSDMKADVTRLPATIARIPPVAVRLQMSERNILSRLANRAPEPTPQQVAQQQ
# T1 sequence (Q15059 554-640): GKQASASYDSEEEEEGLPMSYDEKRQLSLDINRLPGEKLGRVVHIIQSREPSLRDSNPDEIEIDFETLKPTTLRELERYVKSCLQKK
# BRD3 ET (from UniProt Q15059), sequence (Q15059 562-644): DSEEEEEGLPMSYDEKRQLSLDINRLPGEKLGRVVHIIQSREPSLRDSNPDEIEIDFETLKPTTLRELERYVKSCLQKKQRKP
substance,measurement,setting,value
SRLTWRVQRSQNPLKIRLTREAP [TP],Kd,"BRD3 ET [1]; pH 7.5, 10 °C",0.013 ± 0.01 µM
same,Kd,"BRD3 ET [1]; pH 7.5, 25 °C",0.09 ± 0.01 µM
BRD4 ET (from UniProt O60885),Kd,[2],635 µM
same,Kd,[3],160 µM
KVAPLKIKLGGF [CHD4],Kd,BRD3-ET; BRD3-ET,~95 µM and < 100 µM
LANA 1098-1116 (from UniProt Q9QR71),Kd,BRD4 ET (Homo sapiens) [4],635 µM
JMJD6 84-96 (from UniProt Q6NYC1),Kd,BRD4 ET (Homo sapiens) [5],160 µM
BRG1 1591-1602 (from UniProt P51532),Kd,BRD3 ET [6],7 µM
KWTLERLKRKYRN [JMJD6],relative binding strength,BRD4-ET; BRD4-ET binding of JMJD6 compared with NSD3 and LANA binding BRD3-ET,reported to bind BRD4-ET more strongly than NSD3 and LANA bind BRD3-ET
same,Kd,"BRD4-ET; BRD4-ET:JMJD6, 20 °C",~160 µM
same,relative binding to BRD3-ET vs BRD4-ET,BRD3-ET; BRD3-ET compared with BRD4-ET,weak or no binding
CHD4 290-301 (from UniProt Q14839),Kd,BRD3 ET [7],95 µM
BRD3 ET (from UniProt Q15059),Kd,[8],950 µM
same,Kd,[9],7 µM
same,Kd,[10],95 µM
NLQSSIVKFKKPLPLTQPG [LANA],Kd,BRD4-ET; BRD4-ET:LANA,~635 µM
